# Results from patent US10441663B2, “Methods for treating cancer” (Bicycle Therapeutics Limited, priority 2016, dated 2019).
# pIC50: −log10 of the molar value. *1 amine or outer side, *2 acyl side, *3 side chain or, on linkers, in order; H or OH if unused. Where a SMILES comes first, the peptide text is derived from it. Bridges are numbered along the chain shown (N, C = ends). [ ]: non-standard residue; d: D form. The star is where a group is joined. ξ: configuration not given here. X2 = COc1cc2cc(c1Cl)N(C)C(=O)C[C@H](OC(=O)[C@H](C)N(C)C(=O)CCSC1CC(=O)N(CC3CCC(C(=O)*)CC3)C1=O)[C@@]1(C)O[C@H]1[C@H](C)[C@@H]1C[C@@](O)(NC(=O)O1)[C@H](OC)/C=C/C=C(\C)C2; 1Nal = N[C@@H](Cc1cccc2ccccc12)C(=O)O; TBMB = c1c(C[*:1])cc(C[*:3])cc1C[*:2]; Tle = CC(C)(C)[C@H](N)C(=O)O; ξA = CC(N)C(=O)O; Sar = CNCC(=O)O
# Tests used:
# EBC-1 xenograft = experiment: Efficacy of BT1721 in EBC-1 xenograft model (Example 6); type: in vivo, Mus Musculus; conditions: for Tumor Size: Mean ± SEM
# Method: The objective of this study was to evaluate the anti-tumor efficacy of BT1721 in EBC-1 xenograft model in female BALB/c nude mice.
# The EBC-1 tumor cells were maintained in vitro as a monolayer culture in RPMI1640 medium supplemented with 10% heat inactivated fetal bovine serum at 37° C. in an atmosphere of 5% CO2 in air. The tumor cells were routinely subcultured twice weekly by trypsin-EDTA treatment. The cells growing in an exponential growth phase were harvested and counted for tumor inoculation.
# Each mouse was inoculated subcutaneously at the right flank with EBC-1 tumor cells (10×10^6) in 0.2 ml of PBS for tumor development. The treatments were started on Day 7 after the tumor inoculation when the average tumor size reached approximately 152 mm^3. Each group consisted of 3 tumor-bearing mice. The testing articles were administrated to the mice according to the predetermined regimen as shown in the experimental design (Table 43).
# All the procedures related to animal handling, care and the treatment in the study were performed according to the guidelines of the Association for Assessment and Accreditation of Laboratory Animal Care (AAALAC). At the time of routine monitoring, the animals were daily checked for any effects of tumor growth and treatments on normal behavior such as mobility, food and water consumption (by looking only), body weight gain/loss (body weights were measured every day), eye/hair matting and any other abnormal effect as stated in the protocol. Death and observed clinical signs were recorded on the basis of the numbers of animals within each subset.
# The major endpoint was to see if the tumor growth could be delayed or mice could be cured. Tumor size was measured three times weekly in two dimensions using a caliper, and the volume was expressed in mm^3 using the formula: V=0.5 a×b^2 where a and b are the long and short diameters of the tumor, respectively. The tumor size was then used for calculations of T/C value. The T/C value (in percent) is an indication of antitumor effectiveness; T and C are the mean volumes of the treated and control groups, respectively, on a given day.
# TGI was calculated for each group using the formula: TGI (%)=[1−(Ti−T0)/(Vi−V0)]×100; Ti is the average tumor volume of a treatment group on a given day, T0 is the average tumor volume of the treatment group on the day of treatment start, Vi is the average tumor volume of the vehicle control group on the same day with Ti, and V0 is the average tumor volume of the vehicle group on the day of treatment start.
# Summary statistics, including mean and the standard error of the mean (SEM), are provided for the tumor volume of each group at each time point.
# Statistical analysis of difference in tumor volume among the groups was conducted on the data obtained at the best therapeutic time point after the final dose.
# A one-way ANOVA was performed to compare tumor volume among groups, and when a significant F-statistics (a ratio of treatment variance to the error variance) was obtained, comparisons between groups were carried out with Games-Howell test. All data were analyzed using Prism. P<0.05 was considered to be statistically significant.
# HT1080 cell line = experiment: In vitro cytotoxicity, ATP endpoint assay after 72 hours incubation; type: cell-based; conditions: ATP endpoint, HT-1080 cells
# Method: To evaluate the in vitro cytotoxicity of BT1718 and BT1721 in an HT1080 cell line using an ATP endpoint assay after 72 hours incubation.
# Cells were seeded in 96 well plates (75 μl/well, HT1080=7500−15000 cell/well) and incubated overnight at 37° C.+5% CO2.
# The day after cell seeding, serial dilutions (1:5) of BT1718 and BT1721 were prepared in DMSO and diluted 1:71 in cell culture media to give 4× final concentrations. Twenty five μl/well was added to the cells (2 μM or 5 μM top final concentration of BT1718 and 2 μM or 5 μM top final concentration of BT1721, <0.6% final DMSO).
# Cells were 30-50% confluent upon dosing. Control wells containing 5 μM final concentration of staurosporine (positive control), lysis buffer (1% NP40, 20 mM Tris pH8, 137 mM NaCl, 10% glycerol, 2 mM EDTA, 1 mM Na Orthovanadate, 10 μg/ml leupeptin, 10 μg/ml aprotinin) positive control or media (negative control), were also included. Plates were sealed with gas permeable seals and incubated at 37° C.+5% CO2 for 72 hours. No wash steps were performed.
# After a total of 72 hours after dosing, ATPLite reagent (Perkin Elmer) was equilibrated to room temperate and reconstituted in the supplied buffer as per the manufacturer's instructions. One hundred μl 1× detection reagent was added per well. Plates were sealed, protected from light and shaken gently for 20 minutes to ensure complete cell lysis before luminescence was read using a BMG Pherastar FS plate reader. […] Data was analysed using GraphPad Prism. Non-linear regression fit was used to calculate a relative IC50 for each toxic agent: Y=Bottom+(Top−Bottom)/(1+10^((Log Ic50−X)*HillSlope)) where the IC50 is defined as 50% of the total cell kill achieved at the top concentration of toxin.
smiles,measurement,setting,value
COc1cc2cc(c1Cl)N(C)C(=O)C[C@H](OC(=O)[C@H](C)N(C)C(=O)CCSC1CC(=O)N(CC3CCC(C(=O)NCCCC[C@H](NC(C)=O)C(=O)NCC(=O)N(C)CC(=O)N(C)CC(=O)N(C)CC(=O)N(C)CC(=O)N(C)CC(=O)N(C)CC(=O)N(C)CC(=O)N(C)CC(=O)N(C)CC(=O)N(C)CC(=O)NC(C)C(=O)N[C@H]4CSCc5cc6cc(c5)CSC[C@H](NC(=O)[C@@H](C)NC(=O)[C@H](Cc5cccc7ccccc57)NC(=O)[C@H](CCC(=O)O)NC(=O)[C@H](CC(N)=O)NC(=O)[C@@H](C)NC4=O)C(=O)N[C@@H](CCC(=O)O)C(=O)N[C@@H](CC(=O)O)C(=O)N[C@@H](Cc4ccccc4)C(=O)N[C@@H](Cc4ccc(O)cc4)C(=O)N[C@@H](CC(=O)O)C(=O)N[C@@H](C(C)(C)C)C(=O)N[C@H](C(N)=O)CSC6)CC3)C1=O)[C@@]1(C)O[C@H]1[C@H](C)[C@@H]1C[C@@](O)(NC(=O)O1)[C@H](OC)/C=C/C=C(\C)C2 (stereo partly shown) [BT1721] (Ac-K(X2)G[Sar][Sar][Sar][Sar][Sar][Sar][Sar][Sar][Sar][Sar][ξA]C[dA]NE[1Nal][dA]CEDFYD[Tle]C-NH2; linker 14-20-27 via TBMB),effect on tumor growth,"EBC-1 xenograft; 1 mg/kg, 3 mg/kg and 10 mg/kg, day 14",didn't show any inhibitory effect on tumor growth
same,tumor volume trace over time,"EBC-1 xenograft; 1 mg/kg, tiw, day 0",164 ± 31 mm^3
same,tumor volume trace over time,"EBC-1 xenograft; 1 mg/kg, tiw, day 2",291 ± 57 mm^3
same,tumor volume trace over time,"EBC-1 xenograft; 1 mg/kg, tiw, day 4",367 ± 68 mm^3
same,tumor volume trace over time,"EBC-1 xenograft; 1 mg/kg, tiw, day 7",640 ± 39 mm^3
same,tumor volume trace over time,"EBC-1 xenograft; 1 mg/kg, tiw, day 9",784 ± 40 mm^3
same,tumor volume trace over time,"EBC-1 xenograft; 1 mg/kg, tiw, day 11",874 ± 50 mm^3
same,T/C,"EBC-1 xenograft; 1 mg/kg, tiw, day 14",22%
same,TGI,"EBC-1 xenograft; 1 mg/kg, tiw, day 14",82%
same,tumor volume trace over time,"EBC-1 xenograft; 1 mg/kg, tiw, day 14",981 ± 47 mm^3
same,Tumor Size,"EBC-1 xenograft; 1 mg/kg, tiw, day 14",981 ± 47 mm^3
same,tumor volume trace over time,"EBC-1 xenograft; 3 mg/kg, tiw, day 0",142 ± 18 mm^3
same,tumor volume trace over time,"EBC-1 xenograft; 3 mg/kg, tiw, day 2",207 ± 60 mm^3
same,tumor volume trace over time,"EBC-1 xenograft; 3 mg/kg, tiw, day 4",310 ± 61 mm^3
same,tumor volume trace over time,"EBC-1 xenograft; 3 mg/kg, tiw, day 7",531 ± 116 mm^3
same,tumor volume trace over time,"EBC-1 xenograft; 3 mg/kg, tiw, day 9",708 ± 132 mm^3
same,tumor volume trace over time,"EBC-1 xenograft; 3 mg/kg, tiw, day 11",761 ± 147 mm^3
same,T/C,"EBC-1 xenograft; 3 mg/kg, tiw, day 14",26%
same,TGI,"EBC-1 xenograft; 3 mg/kg, tiw, day 14",77%
same,tumor volume trace over time,"EBC-1 xenograft; 3 mg/kg, tiw, day 14",920 ± 210 mm^3
same,Tumor Size,"EBC-1 xenograft; 3 mg/kg, tiw, day 14",920 ± 210 mm^3
same,effect on tumor growth,EBC-1 xenograft; 10 mg/kg tiw,did not show any inhibitory effect on tumor growth
same,tumor volume trace over time,"EBC-1 xenograft; 10 mg/kg, tiw, day 0",160 ± 25 mm^3
same,tumor volume trace over time,"EBC-1 xenograft; 10 mg/kg, tiw, day 2",249 ± 82 mm^3
same,tumor volume trace over time,"EBC-1 xenograft; 10 mg/kg, tiw, day 4",407 ± 85 mm^3
same,tumor volume trace over time,"EBC-1 xenograft; 10 mg/kg, tiw, day 7",632 ± 149 mm^3
same,tumor volume trace over time,"EBC-1 xenograft; 10 mg/kg, tiw, day 9",735 ± 201 mm^3
same,tumor volume trace over time,"EBC-1 xenograft; 10 mg/kg, tiw, day 11",858 ± 72 mm^3
same,T/C,"EBC-1 xenograft; 10 mg/kg, tiw, day 14",6%
same,TGI,"EBC-1 xenograft; 10 mg/kg, tiw, day 14",96%
same,tumor volume trace over time,"EBC-1 xenograft; 10 mg/kg, tiw, day 14",1142 ± 147 mm^3
same,Tumor Size,"EBC-1 xenograft; 10 mg/kg, tiw, day 14",1142 ± 147 mm^3
same,Body Weight,"EBC-1 xenograft; 1 mpk, tiw, day 0",22.2 ± 0.7 g
same,Body Weight (% Change),"EBC-1 xenograft; 1 mpk, tiw, day 0",0.0%
same,Body Weight,"EBC-1 xenograft; 1 mpk, tiw, day 2",22.0 ± 0.5 g
same,Body Weight (% Change),"EBC-1 xenograft; 1 mpk, tiw, day 2",−1.1 ± 0.7%
same,Body Weight,"EBC-1 xenograft; 1 mpk, tiw, day 4",22.4 ± 0.8 g
same,Body Weight (% Change),"EBC-1 xenograft; 1 mpk, tiw, day 4",0.8 ± 2.3%
same,Body Weight,"EBC-1 xenograft; 1 mpk, tiw, day 7",22.5 ± 0.9 g
same,Body Weight (% Change),"EBC-1 xenograft; 1 mpk, tiw, day 7",1.3 ± 1.4%
same,Body Weight,"EBC-1 xenograft; 1 mpk, tiw, day 9",23.2 ± 0.8 g
same,Body Weight (% Change),"EBC-1 xenograft; 1 mpk, tiw, day 9",4.4 ± 0.8%
same,Body Weight,"EBC-1 xenograft; 1 mpk, tiw, day 11",22.9 ± 1.0 g
same,Body Weight (% Change),"EBC-1 xenograft; 1 mpk, tiw, day 11",3.1 ± 1.7%
same,Body Weight,"EBC-1 xenograft; 1 mpk, tiw, day 14",23.3 ± 1.1 g
same,Body Weight (% Change),"EBC-1 xenograft; 1 mpk, tiw, day 14",4.6 ± 2.0%
same,Body Weight,"EBC-1 xenograft; 3 mpk tiw, day 0",22.9 ± 0.4 g
same,Body Weight (% Change),"EBC-1 xenograft; 3 mpk tiw, day 0",0.0%
same,Body Weight,"EBC-1 xenograft; 3 mpk tiw, day 2",22.3 ± 0.6 g
same,Body Weight (% Change),"EBC-1 xenograft; 3 mpk tiw, day 2",−2.8 ± 1.3%
same,Body Weight,"EBC-1 xenograft; 3 mpk tiw, day 4",22.3 ± 0.8 g
same,Body Weight (% Change),"EBC-1 xenograft; 3 mpk tiw, day 4",−2.8 ± 1.9%
same,Body Weight,"EBC-1 xenograft; 3 mpk tiw, day 7",23.1 ± 0.7 g
same,Body Weight (% Change),"EBC-1 xenograft; 3 mpk tiw, day 7",0.8 ± 1.8%
same,Body Weight,"EBC-1 xenograft; 3 mpk tiw, day 9",23.9 ± 1.0 g
same,Body Weight (% Change),"EBC-1 xenograft; 3 mpk tiw, day 9",4.0 ± 2.8%
same,Body Weight,"EBC-1 xenograft; 3 mpk tiw, day 11",24.0 ± 1.0 g
same,Body Weight (% Change),"EBC-1 xenograft; 3 mpk tiw, day 11",4.7 ± 2.7%
same,Body Weight,"EBC-1 xenograft; 3 mpk tiw, day 14",24.6 ± 1.0 g
same,Body Weight (% Change),"EBC-1 xenograft; 3 mpk tiw, day 14",7.2 ± 2.9%
same,Body Weight,"EBC-1 xenograft; 10 mpk tiw, day 0",23.2 ± 0.5 g
same,Body Weight (% Change),"EBC-1 xenograft; 10 mpk tiw, day 0",0.0%
same,Body Weight,"EBC-1 xenograft; 10 mpk tiw, day 2",23.2 ± 0.3 g
same,Body Weight (% Change),"EBC-1 xenograft; 10 mpk tiw, day 2",0.0 ± 1.5%
same,Body Weight,"EBC-1 xenograft; 10 mpk tiw, day 4",23.2 ± 0.4 g
same,Body Weight (% Change),"EBC-1 xenograft; 10 mpk tiw, day 4",−0.3 ± 0.5%
same,Body Weight,"EBC-1 xenograft; 10 mpk tiw, day 7",23.9 ± 0.5 g
same,Body Weight (% Change),"EBC-1 xenograft; 10 mpk tiw, day 7",2.8 ± 0.6%
same,Body Weight,"EBC-1 xenograft; 10 mpk tiw, day 9",24.4 ± 0.4 g
same,Body Weight (% Change),"EBC-1 xenograft; 10 mpk tiw, day 9",5.1 ± 0.6%
same,Body Weight,"EBC-1 xenograft; 10 mpk tiw, day 11",24.4 ± 0.6 g
same,Body Weight (% Change),"EBC-1 xenograft; 10 mpk tiw, day 11",5.0 ± 0.3%
same,Body Weight,"EBC-1 xenograft; 10 mpk tiw, day 14",25.3 ± 0.5 g
same,Body Weight (% Change),"EBC-1 xenograft; 10 mpk tiw, day 14",8.8 ± 0.7%
same,body weight effect,"EBC-1 xenograft; mouse, in vivo",maintained their bodyweight well
same,pIC50,HT1080 cell line,8.05
